{"source": "paper PMC4990751", "about": "(Molecules and Cells, 2016)", "proteins": {"B1": {"name": "T105C-PaAhpC (enzyme, Pseudomonas aeruginosa PAO1, UniProt Q9I6Z3 1-187, looked up)", "chain": "MSLINTQVQPFKVNAFHNGKFIEVTEESLKGKWSVLIFMPAAFTFNCPTEIEDAANNYGEFQKAGAEVYIVTTDTHFSHKVWHETSPAVGKAQFPLIGDPTHQLCNAFGVHIPEEGLALRGTFVINPEGVIKTVEIHSNEIARDVGETVRKLKAAQYTAAHPGEVCPAKWKEGEKTLAPSLDLVGKI"}}, "target": "the molecule itself", "experiment": "SEC", "data": [{"protein": "B1", "values": [{"measurement": "stoichiometry N", "result": 10}]}]}
